Measured values taken from US20120282280A1 (Hoffmann-La Roche, published 2012).

Assays:
[1] = molecular target: DIG-BP4 (digoxygenated protein); assay: SPR (Biacore), legend of FIG. 10d (Table 3 and the text print 33 pM)
[2] = molecular target: DIG-Myoglobin (mono-digoxygenated protein); assay: SPR (Biacore), DIG-Myoglobin as analyte, replicate
[3] = molecular target: DIG-Myoglobin (mono-digoxygenated protein); assay: SPR (Biacore), DIG-Myoglobin as analyte
[4] = molecular target: DIG-BP4 (digoxygenated protein); assay: SPR (Biacore), antibody captured by anti-mouse IgG, DIG-BP4 injected 0.3125-10 nM, 25 C
[5] = molecular target: DIG-Myoglobin (mono-digoxygenated protein); assay: SPR (Biacore), DIG-Myoglobin as analyte; remark: listed apart in the source
[6] = molecular target: DIG-Myoglobin (mono-digoxygenated protein); assay: SPR (Biacore), DIG-Myoglobin as analyte; lower end of the range, tied to <DIG>hu2 by Table 3a
[7] = molecular target: DIG-BP4 (digoxygenated protein); assay: SPR (Biacore), antibody captured by anti-human IgG, DIG-BP4 injected 0.3125-10 nM, 25 C

DIG-Myoglobin (mono-digoxygenated protein), sequence (P68082 2-154): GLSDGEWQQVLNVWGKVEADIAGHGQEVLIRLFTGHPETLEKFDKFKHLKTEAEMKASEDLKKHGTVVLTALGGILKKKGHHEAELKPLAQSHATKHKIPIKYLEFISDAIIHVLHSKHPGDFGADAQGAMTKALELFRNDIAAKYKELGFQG

| Binder | Kd [1] | Kd [2] | koff [2] | kon [2] | Kd [3] | koff [3] | kon [3] | Kd [4] | fold better affinity than <DIG>-hu2 and the disulfide-stabilized <DIG> scFv [5] | Kd [6] | Kd [7] |
| --- | --- | --- | --- | --- | --- | --- | --- | --- | --- | --- | --- |
| murine <Dig> IgG1 kappa from mouse hybridoma clone 19-11 (antibody, V domains shown, also called murine DIG-IgG 19-11; <DIG>M-19-11) VH: EVQLVESGGGLVKPGGSLKLSCAVSGFTFSDYAMSWIRQTPENRLEWVASINIGATYAYYPDSVKGRFTISRDNAKNTLFLQMSSLGSEDTAMYYCARPGSPYEYDKAYYSMAYWGPGTSVTVSS VL: DVQMTQSTSSLSASLGDRVTISCRASQDIKNYLNWYQQKPGGTVKLLIYYSSTLLSGVPSRFSGRGSGTDFSLTITNLEREDIATYFCQQSITLPPTFGGGTKLEIK | 33 nM | 0.295 nM | 0.000675 s⁻¹ | 2.28e+06 M⁻¹ s⁻¹ | 0.386 nM | 0.000676 s⁻¹ | 1.75e+06 M⁻¹ s⁻¹ | 0.033 nM | ~100 fold | – | – |
| humanized <Dig> IgG (antibody, V domains shown, also called <DIG>hu2; <DIG>-hu2) VH: QVQLVESGGGLVKPGGSLRLSCAASGFTFSDYAMSWIRQAPGKGLEWVSSINIGATYIYYADSVKGRFTISRDNAKNSLYLQMNSLRAEDTAVYYCARPGSPYEYDKAYYSMAYWGQGTTVTVSS VL: DIQMTQSPSSLSASVGDRVTITCRASQDIKNYLNWYQQKPGKAPKLLIYYSSTLLSGVPSRFSGSGSGTDFTLTISSLQPEDFATYYCQQSITLPPTFGGGTKVEIKR | – | 11.8 nM | 0.00881 s⁻¹ | 749000 M⁻¹ s⁻¹ | 15.8 nM | 0.00982 s⁻¹ | 620000 M⁻¹ s⁻¹ | – | – | 15 to 25 nM | < 0.076 nM |
